Laboratory results: US20020127541A1 (GOVERNING COUNCIL OF THE UNIVERSITY OF TORONTO, published 2002)

Key:
[1] = molecular target: T1, endogenous calnexin (UniProt P27824 21-592); assay: co-immunoprecipitation
T1 construct: Endogenous endoplasmic reticulum protein used as a control
T1 sequence (looked up): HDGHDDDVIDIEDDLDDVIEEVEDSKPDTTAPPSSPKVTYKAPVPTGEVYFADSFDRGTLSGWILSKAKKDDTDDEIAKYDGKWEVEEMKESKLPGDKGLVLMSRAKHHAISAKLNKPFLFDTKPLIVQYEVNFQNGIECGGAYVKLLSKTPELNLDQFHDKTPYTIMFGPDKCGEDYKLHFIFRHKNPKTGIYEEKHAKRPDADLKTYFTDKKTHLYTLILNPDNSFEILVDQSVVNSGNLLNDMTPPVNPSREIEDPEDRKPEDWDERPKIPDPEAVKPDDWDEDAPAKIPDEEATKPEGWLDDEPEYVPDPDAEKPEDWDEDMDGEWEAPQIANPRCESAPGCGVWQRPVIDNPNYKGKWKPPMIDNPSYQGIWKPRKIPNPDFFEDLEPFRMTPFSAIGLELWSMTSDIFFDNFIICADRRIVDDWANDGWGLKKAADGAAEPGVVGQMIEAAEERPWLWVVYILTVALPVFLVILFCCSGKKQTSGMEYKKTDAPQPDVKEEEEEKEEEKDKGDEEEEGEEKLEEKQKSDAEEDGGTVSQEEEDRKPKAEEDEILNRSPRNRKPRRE

[2] = molecular target: wild type PS1 (wtPS1) holoprotein (human, UniProt P49768 1-467); assay: co-immunoprecipitation with anti-PS1 loop or N-terminus antibodies, Western blot
Method: Co-immunoprecipitation and glycerol velocity gradient fractionation were performed as previously described in Yu et al., 1998, J.Biol.Chem. 273:16470-16475. Immunoprecipitations were performed on cell lysates 48 hours after transient transfections. Total proteins (2 mg/ml) were extracted from cultured cells or brain tissue using a lysis buffer (0.2% NP-40, 0.5% Triton X-100, 50 mM Tris-HCl [pH7.6], 150 mM NaCl, 2 mM EDTA, 2 mM PMSF, […] each of aprotinin, leupeptin, pepstatin). […] New York, Cold Spring Harbor Laboratory Press. Protein A Sepharose was subsequently added to the antibody-antigen complex and incubated for 2 hours at 4° C. The beads were washed four times with a washing buffer (0.2% NP-40, 50 mM Tris-HCl[pH7.6], 150 mM NaCl, 2 mM EDTA). IP products were resolved by SDS-PAGE and investigated for the co-immunoprecipitated partners with the corresponding antibody and detection with ECL (Amersham). […]
Western blots of anti-PS 1 immunoprecipitates from PS1 transfected HEK293 cells were examined for the presence of other arm proteins expressed endogenously in HEK293 cells. Endogenous β-catenin, but not endogenous α-catenin, γ-catenin, or calnexin were detected in Western blots of immunoprecipitation products from HEK293 cells stably transfected with PS1, using either antibodies to PS1 cytoplasmic loop or to the PS1 N-terminus.

| Binder | binding result [1] | binding result [2] |
| --- | --- | --- |
| Myc-tagged hNPRAP528-1084 (other, human, Transiently expressed in HEK293 cells; also called myc-hNPRAP) ALKMPIIQDALAVLTNAVIIPHSGWENSPLQDDRKIQLHSSQVLRNATGCLRNVSSAGEEARRRMRECDGLTDALLYVIQSALGSSEIDSKTVENCVCILRNLSYRLAAETSQGQHMGTDELDGLLCGEANGKDAESSGCWGKKKKKKKSQDQWDGVGPLPDCAEPPKGIQMLWHPSIVKPYLTLLSECSNPDTLEGAAGALQNLAAGSWKWSVYIRAAVRKEKGLPILVELLRIDNDRVVCAVATALRNMALDVRNKELIGKYAMRDLVHRLPGGNNSNNTASKAMSDDTVTAVCCTLHEVITKNMENAKALRDAGGIEKLVGISKSKGDKHSPKVVKAASQVLNSMWQYRDLRSLYKKDGWSQYHFVASSSTIERDRQRPYSSSRTPSISPVRVSPNNRSASAPASPREMISLKERKTDYECTGSNATYHGGKGEHTSRKDAMTAQNTGISTLYRNSYGAPAEDIKHNQVSAQPVPQEPSRKDYETYQPFQNSTRNYDESFFEDQVHHRPPASEYTMHLGLKSTGNYVDFYSAARPYSELNYETSHYPASPDSWV | no binding | – |
| endogenous α-catenin (other, Endogenous protein of HEK293 cell lysates) TAVHAGNINFKWDPKSLEIRTLAVERLLEPLVTQVTTLVNTNSKGPSNKKRGRSKKAHVLAASVEQATENFLEKGDKIAKESQFLKEELVAAVEDVRKQGDLMKAAAGEFADDPCSSVKRGNMVRAARALLSAVTRLLILADMADVYKLLVQLKVVEDGILKLRNAGNEQDLGIQYKALKPEVDKLNIMAAKRQQELKDVGHRDQMAAARGILQKNVPILYTASQACLQHPDVAAYKANRDLIYKQLQQAVTGISNAAQATASDDASQHQGGGGGELAYALNNFDKQIIVDPLSFSEERFRPSLEERLESIISGAALMADSSCTRDDRRERIVAECNAVRQALQDLLSEYMGNAGRKERSDALNSAIDKMTKKTRDLRRQLRKAVMDHVSDSFLETNVPLLVLIEAAKNGNEKEVKEYAQVFREHANKLIEVANLACSISNNEEGVKLVRMSASQLEALCPQVINAALALAAKPQSKLAQENMDLFKEQWEKQVRVLTDAVDDITSIDDFLAVSENHILEDVNKCVIALQEKDVDGLDRTAGAIRGRAARVIHVVTSEMDNYEPGVYTEKVLEATKLLSNTVMPRFTEQVEAAVEALSSDPAQPMDENEFIDASRLVYDGIRDIRKAVLMIRTPEELDDSDFETEDFDVRSRTSVQTEDDQLIAGQSARAIMAQLPQEQKAKIAEQVASFQEEKSKLDAEVSKWDDSGNDIIVLAKQMCMIMMEMTDFTRGKGPLKNTSDVISAAKKIAEAGSRMDKLGRTIADHCPDSACKQDLLAYLQRIALYCHQLNICSKVKAEVQNLGGELVVSGVDSAMSLIQAAKNLMNAVVQTVKASYVASTKYQKSQGMASLNLPAVSWKMKAPEKKPLVKREKQDETQTKIKRASQKKHVNPVQALSEFKAMDSI | – | no binding |
